{
  "source": "patent US7018846",
  "about": "(SCIENCE AND TECHNOLOGY CORPORATION UNM, dated 2006)",
  "target": "T1, C-terminally His-tagged N-formyl peptide receptor (UniProt P21462 1-350)",
  "T1 construct": "Expressed in transfected U937 cells; also called C-His FPR; His6 FPR",
  "T1 sequence": "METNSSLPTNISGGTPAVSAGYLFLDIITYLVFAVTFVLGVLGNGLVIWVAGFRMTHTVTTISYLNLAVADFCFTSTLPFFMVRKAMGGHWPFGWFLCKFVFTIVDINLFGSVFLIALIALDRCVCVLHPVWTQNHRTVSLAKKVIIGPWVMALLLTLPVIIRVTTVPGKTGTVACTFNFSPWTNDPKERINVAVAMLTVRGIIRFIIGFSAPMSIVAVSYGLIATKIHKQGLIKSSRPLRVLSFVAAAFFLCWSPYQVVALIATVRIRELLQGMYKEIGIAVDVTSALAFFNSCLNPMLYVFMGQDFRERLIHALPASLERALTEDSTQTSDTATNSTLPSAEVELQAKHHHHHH",
  "test": "flow cytometry; fMLFK-FITC on C-His FPR silica particles, optimal receptor input",
  "note": "No end group written: not given here. *: point of attachment. For = O=C*",
  "data": [
    {"binder": "For-MLFK (also: FITC label, attachment site not given here, Bought from Peninsula Laboratories; also called fMLFK-FITC; fluorescent formyl peptide)", "note": "[formyl-met-leu-phe-lys-FITC]", "values": [
      {"measurement": "fluorescent ligand signal to background ratio", "value": "≥ 30 ratio (x:1)"}
    ]}
  ]
}
